Here are results for one substance from patent publication US20210087268A1.

The target in the assay is T1, TIGIT expressed on cells (TIGIT-expressing effector cell line of the Promega kit; TIGIT-overexpressing NK92 cell line) (UniProt Q495A1).
T1 sequence (looked up): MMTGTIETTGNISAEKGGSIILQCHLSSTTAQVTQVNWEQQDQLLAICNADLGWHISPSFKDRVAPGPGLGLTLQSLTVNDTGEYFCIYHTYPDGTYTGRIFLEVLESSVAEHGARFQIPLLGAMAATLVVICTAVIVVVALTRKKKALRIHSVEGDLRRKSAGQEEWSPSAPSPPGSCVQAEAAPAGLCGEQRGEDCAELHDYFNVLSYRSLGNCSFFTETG
Kind of assay: cell-based or functional assay.

Chain of 10A7 antibody (VH): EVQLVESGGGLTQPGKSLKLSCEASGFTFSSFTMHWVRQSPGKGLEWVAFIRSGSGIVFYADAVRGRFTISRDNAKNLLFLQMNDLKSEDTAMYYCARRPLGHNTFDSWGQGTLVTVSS
Chain of 10A7 antibody (VL): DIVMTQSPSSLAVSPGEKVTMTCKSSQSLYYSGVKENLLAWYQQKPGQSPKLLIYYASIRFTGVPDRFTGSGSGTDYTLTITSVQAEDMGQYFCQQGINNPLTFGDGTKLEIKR

Turning to 10A7 antibody, the binding inhibition (EC50), TIGIT/CD155 blockade assay, luminescence fold response was found to be 752 nM.
